Experiments:
[1] = target: Fab488-Fc555 dual-labeled test antibody; experiment: cell-based or functional assay
[2] = target: PL555-PA488 dual-labeled test antibody; experiment: cell-based or functional assay

## CA125 TIPS factor (MUC16/CA125), Q8WXI7 1-14451
[1]
  increase in 570 nm emission signal (FRET, 470 nm excitation): 35%
[2]
  increase in 570 nm emission signal (FRET, 470 nm excitation): 18%

— patent US20210285960A1
